Results reported in patent publication US20190134153A1, “IMMUNOMODULATORY EFFECT OF INHALED KINASE INHIBITOR PEPTIDES IN LUNG” (MOERAE MATRIX, INC., priority 2017, published 2019).

Tests used:
Experiment in all cases: Kinase Profiling Assay
Assay type in all cases: biochemical
Settings in all cases: 100 μM
[1] = biological target: MSK2(h) (Homo sapiens, UniProt O75676)
[2] = biological target: CDK1/cyclinB(h) (Homo sapiens, UniProt P06493)
[3] = biological target: EphA5(h) (Homo sapiens, UniProt P54756)
[4] = biological target: DAPK1(h) (Homo sapiens, UniProt P53355)
[5] = biological target: T1, CHK1(h) (Homo sapiens, UniProt O14757)
T1 sequence (O14757 1-476): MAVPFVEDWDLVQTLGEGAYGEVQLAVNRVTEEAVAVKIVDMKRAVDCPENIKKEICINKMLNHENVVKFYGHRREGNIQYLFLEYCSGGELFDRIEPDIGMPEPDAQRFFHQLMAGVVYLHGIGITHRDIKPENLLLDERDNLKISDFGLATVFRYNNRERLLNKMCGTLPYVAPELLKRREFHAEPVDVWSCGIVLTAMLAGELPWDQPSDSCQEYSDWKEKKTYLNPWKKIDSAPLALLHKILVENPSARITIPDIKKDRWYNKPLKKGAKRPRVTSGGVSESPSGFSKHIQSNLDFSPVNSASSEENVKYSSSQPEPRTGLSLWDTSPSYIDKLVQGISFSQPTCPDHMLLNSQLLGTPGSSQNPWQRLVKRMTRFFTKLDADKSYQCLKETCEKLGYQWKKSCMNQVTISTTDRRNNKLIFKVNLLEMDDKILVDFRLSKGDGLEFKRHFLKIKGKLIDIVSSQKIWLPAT

[6] = biological target: T2, SGK2(h) (Homo sapiens, UniProt Q9HBY8)
T2 sequence (Q9HBY8 1-367): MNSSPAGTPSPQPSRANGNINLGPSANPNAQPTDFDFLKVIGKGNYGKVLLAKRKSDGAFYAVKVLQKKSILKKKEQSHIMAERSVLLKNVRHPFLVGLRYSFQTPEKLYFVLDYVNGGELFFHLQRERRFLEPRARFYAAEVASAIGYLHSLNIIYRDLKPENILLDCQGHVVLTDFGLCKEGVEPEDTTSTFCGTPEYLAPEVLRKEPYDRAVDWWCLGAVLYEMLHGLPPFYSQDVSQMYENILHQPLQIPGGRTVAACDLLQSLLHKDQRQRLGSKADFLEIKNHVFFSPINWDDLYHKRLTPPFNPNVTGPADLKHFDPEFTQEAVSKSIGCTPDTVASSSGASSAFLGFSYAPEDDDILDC

[7] = biological target: Fer(h) (Homo sapiens, UniProt P16591)
[8] = biological target: T3, PRAK(h) (Homo sapiens, UniProt Q8IW41)
T3 sequence (Q8IW41 1-473): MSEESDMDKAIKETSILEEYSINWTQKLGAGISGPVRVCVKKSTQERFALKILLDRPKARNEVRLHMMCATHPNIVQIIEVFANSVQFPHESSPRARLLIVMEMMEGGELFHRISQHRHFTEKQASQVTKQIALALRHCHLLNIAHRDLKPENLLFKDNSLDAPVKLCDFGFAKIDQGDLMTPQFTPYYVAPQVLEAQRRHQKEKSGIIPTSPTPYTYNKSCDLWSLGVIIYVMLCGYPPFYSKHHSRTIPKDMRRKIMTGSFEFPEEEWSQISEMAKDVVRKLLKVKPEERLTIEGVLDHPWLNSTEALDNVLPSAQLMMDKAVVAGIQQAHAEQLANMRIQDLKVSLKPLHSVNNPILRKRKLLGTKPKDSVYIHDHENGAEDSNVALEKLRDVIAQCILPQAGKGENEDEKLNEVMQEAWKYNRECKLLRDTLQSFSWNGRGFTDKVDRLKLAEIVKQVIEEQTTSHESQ

[9] = biological target: T4, EphA8(h) (Homo sapiens, UniProt P29322)
T4 sequence (P29322 28-1005): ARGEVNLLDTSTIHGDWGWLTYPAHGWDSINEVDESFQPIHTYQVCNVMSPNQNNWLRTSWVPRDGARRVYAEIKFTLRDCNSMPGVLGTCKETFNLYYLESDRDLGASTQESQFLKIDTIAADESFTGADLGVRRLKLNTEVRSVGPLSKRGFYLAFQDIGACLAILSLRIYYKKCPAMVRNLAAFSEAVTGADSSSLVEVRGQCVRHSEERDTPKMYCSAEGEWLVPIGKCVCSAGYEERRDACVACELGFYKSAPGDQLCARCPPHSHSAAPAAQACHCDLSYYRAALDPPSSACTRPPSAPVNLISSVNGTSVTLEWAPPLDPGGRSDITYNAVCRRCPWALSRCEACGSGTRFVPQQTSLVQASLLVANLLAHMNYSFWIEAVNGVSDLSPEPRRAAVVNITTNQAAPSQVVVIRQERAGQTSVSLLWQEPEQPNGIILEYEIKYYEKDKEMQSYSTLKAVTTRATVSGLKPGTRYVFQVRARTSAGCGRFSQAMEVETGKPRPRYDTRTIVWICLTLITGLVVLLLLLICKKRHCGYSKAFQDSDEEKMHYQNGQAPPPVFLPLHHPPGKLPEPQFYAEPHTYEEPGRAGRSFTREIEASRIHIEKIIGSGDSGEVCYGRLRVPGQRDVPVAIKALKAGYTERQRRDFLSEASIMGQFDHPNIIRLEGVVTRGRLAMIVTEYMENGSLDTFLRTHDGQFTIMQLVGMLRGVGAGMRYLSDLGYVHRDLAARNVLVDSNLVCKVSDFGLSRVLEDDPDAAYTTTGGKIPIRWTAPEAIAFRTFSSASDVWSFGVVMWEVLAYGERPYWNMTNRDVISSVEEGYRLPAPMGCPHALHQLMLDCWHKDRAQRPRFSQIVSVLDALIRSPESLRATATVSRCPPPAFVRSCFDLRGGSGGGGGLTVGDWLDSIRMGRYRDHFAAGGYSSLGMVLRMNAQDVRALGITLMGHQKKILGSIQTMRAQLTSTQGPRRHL

Sequence of MSK2(h) (O75676 whole entry): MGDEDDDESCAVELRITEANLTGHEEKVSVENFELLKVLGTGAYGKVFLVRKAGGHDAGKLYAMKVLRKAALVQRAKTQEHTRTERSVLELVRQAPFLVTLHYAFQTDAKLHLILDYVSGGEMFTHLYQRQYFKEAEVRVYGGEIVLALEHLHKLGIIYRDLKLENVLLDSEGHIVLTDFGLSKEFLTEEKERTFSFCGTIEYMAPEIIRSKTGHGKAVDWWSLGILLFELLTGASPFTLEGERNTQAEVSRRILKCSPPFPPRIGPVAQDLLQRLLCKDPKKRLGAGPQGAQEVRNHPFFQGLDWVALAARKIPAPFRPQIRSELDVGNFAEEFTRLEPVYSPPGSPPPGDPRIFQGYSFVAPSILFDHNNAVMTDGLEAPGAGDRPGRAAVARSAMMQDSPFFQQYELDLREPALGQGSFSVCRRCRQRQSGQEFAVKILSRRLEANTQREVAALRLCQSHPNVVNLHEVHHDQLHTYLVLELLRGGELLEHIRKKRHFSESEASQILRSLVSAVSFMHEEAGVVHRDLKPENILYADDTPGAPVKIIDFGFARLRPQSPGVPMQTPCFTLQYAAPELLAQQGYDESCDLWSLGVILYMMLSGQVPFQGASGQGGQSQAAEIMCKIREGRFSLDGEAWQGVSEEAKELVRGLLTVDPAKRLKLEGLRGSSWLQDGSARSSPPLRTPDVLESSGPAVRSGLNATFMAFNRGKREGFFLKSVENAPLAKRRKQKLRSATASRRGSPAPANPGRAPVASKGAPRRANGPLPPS
Sequence of CDK1/cyclinB(h) (P06493 whole entry): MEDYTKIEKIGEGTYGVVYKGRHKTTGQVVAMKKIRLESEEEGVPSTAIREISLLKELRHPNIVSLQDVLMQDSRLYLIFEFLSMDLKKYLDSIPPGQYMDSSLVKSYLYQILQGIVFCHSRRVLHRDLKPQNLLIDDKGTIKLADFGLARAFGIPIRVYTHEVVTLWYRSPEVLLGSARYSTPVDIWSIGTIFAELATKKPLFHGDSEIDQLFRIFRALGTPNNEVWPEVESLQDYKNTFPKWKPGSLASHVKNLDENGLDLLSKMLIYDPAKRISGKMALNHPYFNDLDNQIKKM
Sequence of CDK1/cyclinB(h) (P14635 whole entry partner): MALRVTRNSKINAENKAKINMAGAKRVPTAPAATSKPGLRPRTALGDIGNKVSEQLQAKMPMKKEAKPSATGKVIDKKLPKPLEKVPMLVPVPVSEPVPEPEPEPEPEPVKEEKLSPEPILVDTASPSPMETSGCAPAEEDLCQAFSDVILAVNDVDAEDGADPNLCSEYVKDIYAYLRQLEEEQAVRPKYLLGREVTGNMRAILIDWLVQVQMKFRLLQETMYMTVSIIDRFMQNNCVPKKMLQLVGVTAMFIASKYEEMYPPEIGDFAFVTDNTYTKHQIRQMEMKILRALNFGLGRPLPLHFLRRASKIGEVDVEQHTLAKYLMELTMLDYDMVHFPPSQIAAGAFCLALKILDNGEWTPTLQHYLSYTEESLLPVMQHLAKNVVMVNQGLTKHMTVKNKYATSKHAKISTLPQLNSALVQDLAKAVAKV
Sequence of Fer(h) (P16591 whole entry): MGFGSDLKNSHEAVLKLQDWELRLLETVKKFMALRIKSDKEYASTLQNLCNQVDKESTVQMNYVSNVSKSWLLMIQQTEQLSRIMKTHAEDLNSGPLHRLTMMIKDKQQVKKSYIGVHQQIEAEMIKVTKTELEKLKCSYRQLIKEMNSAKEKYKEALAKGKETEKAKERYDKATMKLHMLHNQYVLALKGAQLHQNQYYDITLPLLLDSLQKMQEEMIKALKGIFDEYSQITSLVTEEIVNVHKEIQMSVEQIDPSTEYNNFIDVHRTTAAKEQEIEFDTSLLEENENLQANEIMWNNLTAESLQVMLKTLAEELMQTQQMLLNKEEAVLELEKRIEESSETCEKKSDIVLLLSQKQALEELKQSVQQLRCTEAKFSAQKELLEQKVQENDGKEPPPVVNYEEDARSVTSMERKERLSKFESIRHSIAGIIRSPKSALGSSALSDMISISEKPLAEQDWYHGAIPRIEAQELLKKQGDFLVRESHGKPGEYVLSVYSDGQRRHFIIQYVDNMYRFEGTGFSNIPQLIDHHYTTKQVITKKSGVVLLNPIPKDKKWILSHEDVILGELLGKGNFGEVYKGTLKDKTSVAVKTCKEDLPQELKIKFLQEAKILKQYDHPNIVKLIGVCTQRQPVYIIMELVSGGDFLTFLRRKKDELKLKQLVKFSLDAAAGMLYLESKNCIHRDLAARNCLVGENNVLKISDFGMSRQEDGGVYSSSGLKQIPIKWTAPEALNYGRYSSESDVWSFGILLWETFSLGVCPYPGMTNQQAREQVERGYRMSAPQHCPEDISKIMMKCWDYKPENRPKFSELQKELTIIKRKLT
Sequence of EphA5(h) (P54756 25-1037): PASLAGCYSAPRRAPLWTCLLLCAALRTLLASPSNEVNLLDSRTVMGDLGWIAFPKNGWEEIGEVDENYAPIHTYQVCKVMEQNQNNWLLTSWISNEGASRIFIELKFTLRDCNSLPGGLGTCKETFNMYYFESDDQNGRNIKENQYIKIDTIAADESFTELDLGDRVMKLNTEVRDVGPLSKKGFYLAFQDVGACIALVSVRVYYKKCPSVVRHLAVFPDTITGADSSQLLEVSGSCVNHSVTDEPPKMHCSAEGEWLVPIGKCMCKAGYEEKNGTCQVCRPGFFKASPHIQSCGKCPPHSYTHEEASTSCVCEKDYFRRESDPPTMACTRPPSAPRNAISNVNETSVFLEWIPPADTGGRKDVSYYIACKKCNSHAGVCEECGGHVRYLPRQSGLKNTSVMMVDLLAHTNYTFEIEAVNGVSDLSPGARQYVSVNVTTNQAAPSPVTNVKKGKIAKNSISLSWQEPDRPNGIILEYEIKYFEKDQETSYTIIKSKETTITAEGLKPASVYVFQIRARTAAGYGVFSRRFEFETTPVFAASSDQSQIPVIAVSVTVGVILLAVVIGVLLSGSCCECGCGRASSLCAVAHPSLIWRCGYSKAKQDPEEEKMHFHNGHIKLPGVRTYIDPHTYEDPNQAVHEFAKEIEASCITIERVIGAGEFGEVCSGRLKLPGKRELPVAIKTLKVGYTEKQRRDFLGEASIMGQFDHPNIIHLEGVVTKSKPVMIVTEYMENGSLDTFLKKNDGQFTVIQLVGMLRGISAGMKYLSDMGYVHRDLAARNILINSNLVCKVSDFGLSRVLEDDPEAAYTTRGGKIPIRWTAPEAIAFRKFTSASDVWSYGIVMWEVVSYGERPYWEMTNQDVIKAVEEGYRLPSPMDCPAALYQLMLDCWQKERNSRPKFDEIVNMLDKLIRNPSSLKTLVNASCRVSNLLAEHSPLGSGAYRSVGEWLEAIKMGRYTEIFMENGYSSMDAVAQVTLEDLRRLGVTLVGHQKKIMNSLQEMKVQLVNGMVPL
Sequence of DAPK1(h) (P53355 whole entry): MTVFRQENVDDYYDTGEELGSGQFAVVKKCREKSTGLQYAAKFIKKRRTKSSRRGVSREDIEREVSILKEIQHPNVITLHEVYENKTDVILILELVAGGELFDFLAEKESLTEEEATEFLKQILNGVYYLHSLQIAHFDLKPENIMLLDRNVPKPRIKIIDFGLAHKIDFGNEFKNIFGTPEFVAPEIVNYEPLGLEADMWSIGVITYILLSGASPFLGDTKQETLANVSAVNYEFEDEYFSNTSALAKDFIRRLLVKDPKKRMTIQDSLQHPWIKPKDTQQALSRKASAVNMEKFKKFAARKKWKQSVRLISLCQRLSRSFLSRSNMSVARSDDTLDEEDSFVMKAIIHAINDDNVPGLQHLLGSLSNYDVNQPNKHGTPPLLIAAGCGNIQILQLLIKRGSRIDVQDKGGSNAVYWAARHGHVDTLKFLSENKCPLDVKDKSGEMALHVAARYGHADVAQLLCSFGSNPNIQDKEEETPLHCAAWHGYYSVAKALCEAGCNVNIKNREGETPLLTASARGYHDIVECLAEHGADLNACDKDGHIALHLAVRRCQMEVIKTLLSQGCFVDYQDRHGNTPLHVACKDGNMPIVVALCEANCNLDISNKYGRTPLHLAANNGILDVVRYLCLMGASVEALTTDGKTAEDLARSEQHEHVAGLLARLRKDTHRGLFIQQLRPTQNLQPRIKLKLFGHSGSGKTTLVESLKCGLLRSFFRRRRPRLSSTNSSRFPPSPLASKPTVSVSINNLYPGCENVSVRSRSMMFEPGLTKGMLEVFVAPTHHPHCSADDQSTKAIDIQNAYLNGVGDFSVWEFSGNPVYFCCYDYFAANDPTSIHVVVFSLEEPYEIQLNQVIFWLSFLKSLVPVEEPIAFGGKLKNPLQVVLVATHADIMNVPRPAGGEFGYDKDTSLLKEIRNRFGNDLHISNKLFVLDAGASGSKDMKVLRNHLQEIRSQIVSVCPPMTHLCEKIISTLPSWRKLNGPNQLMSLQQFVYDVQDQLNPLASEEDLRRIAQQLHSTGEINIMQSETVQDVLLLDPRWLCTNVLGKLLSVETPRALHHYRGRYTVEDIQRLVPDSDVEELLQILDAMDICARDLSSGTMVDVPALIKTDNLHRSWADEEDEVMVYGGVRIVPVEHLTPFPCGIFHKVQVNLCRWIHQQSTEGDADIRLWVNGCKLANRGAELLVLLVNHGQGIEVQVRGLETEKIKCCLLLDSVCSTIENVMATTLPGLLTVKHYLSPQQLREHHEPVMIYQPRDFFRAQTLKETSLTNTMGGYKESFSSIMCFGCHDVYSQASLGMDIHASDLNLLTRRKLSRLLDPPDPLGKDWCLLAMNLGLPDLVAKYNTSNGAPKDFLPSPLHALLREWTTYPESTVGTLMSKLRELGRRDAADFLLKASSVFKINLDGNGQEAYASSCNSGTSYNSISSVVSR

Sequence | % activity [1] | % activity [2] | % activity [3] | % activity [4] | % activity [5] | % activity [6] | % activity [7] | % activity [8] | % activity [9]
HRRIKAWLKKIKALARQLGVAA [MMI-0500] | 14% | 57% | 42% | 0% | 65% | −1% | 196% | 95% | 337%
YARAAARQARAKALNRQLGVA [MMI-0200] | 88% |  | 123% |  |  |  | 101% |  | 133%
KAFAKLAARLYRKALARQLGVAA [MMI-0400] | 52% | 74% | 24% | 36% | 87% | 98% | 108% | 118% | 146%
FAKLAARLYRKALARQLGVAA [MMI-0300] | 56% | 73% | 18% | 46% | 91% | 56% | 130% | 128% | 93%
